Reference: the Immune Epitope Database (IEDB)

What was measured:
Experiment in all cases: IEDB peptide-MHC binding, purified MHC/competitive/radioactivity; filed as Kd, often an IC50 or EC50 that approximates it; ≥ and ≤ were set here for values at or beyond the usual limits of such assays
HLA-A*03:01 = target: HLA-A*03:01
HLA-A*11:01 = target: HLA-A*11:01
HLA-A*31:01 = target: HLA-A*31:01
HLA-A*33:01 = target: HLA-A*33:01
HLA-A*68:01 = target: HLA-A*68:01
[1] = source organism: Vaccinia virus WR
[2] = source organism: Lymphocytic choriomeningitis virus (strain Armstrong)
[3] = source organism: SARS coronavirus Tor2
[4] = source organism: Vaccinia virus Copenhagen
[5] = source organism: Dengue virus 3 Martinique/1243/1999
[6] = source organism: Mammarenavirus machupoense
[7] = source organism: Dengue virus 4 Philippines/H241/1956
[8] = source organism: Dengue virus 2 Jamaica/1409/1983
[9] = source organism: Mammarenavirus whitewaterense
[10] = source organism: Dengue virus 1 Brazil/97-11/1997
[11] = source organism: Mammarenavirus guanaritoense
[12] = source organism: Dengue virus 4 Dominica/814669/1981

Sequence | Kd (HLA-A*03:01; [1]) | Kd (HLA-A*11:01; [1]) | Kd (HLA-A*31:01; [1]) | Kd (HLA-A*33:01; [1]) | Kd (HLA-A*68:01; [1]) | other results
FLELKRGIYK | 4.84 nM | 1.19 nM | 120 nM | 945 nM | 89.1 nM | –
DKYGWLCKMH | – | – | – | – | – | Kd (HLA-A*03:01; [2]): ≥ 70000 nM; Kd (HLA-A*11:01; [2]): ≥ 69700 nM; Kd (HLA-A*31:01; [2]): ≥ 59200 nM; Kd (HLA-A*33:01; [2]): ≥ 70000 nM; Kd (HLA-A*68:01; [2]): ≥ 70100 nM
SIRPRVTKQY | 884 nM | 9160 nM | 6270 nM | ≥ 70000 nM | 8010 nM | –
AQPCSDKAYK | – | – | – | – | – | Kd (HLA-A*03:01; [3]): 319 nM; Kd (HLA-A*11:01; [3]): 67.6 nM; Kd (HLA-A*31:01; [3]): 1130 nM; Kd (HLA-A*33:01; [3]): 9490 nM; Kd (HLA-A*68:01; [3]): 6260 nM
IINFTISMR | 41.3 nM | 49.2 nM | 2.23 nM | 98.1 nM | 3.79 nM | –
RVAVNKSNK | 6.83 nM | 11.5 nM | 57.7 nM | ≥ 52000 nM | 147 nM | –
ILRNYLRLY | 648 nM | 4540 nM | 8270 nM | 3020 nM | ≥ 32200 nM | –
DAYNIADAAR | 16000 nM | 613 nM | 19.2 nM | 0.812 nM | 1.28 nM | –
VVKDDPDHYK | – | – | ≥ 40300 nM | ≥ 70000 nM | ≥ 70200 nM | –
KIMSIGFEAR | 175 nM | 36.2 nM | 6.06 nM | 562 nM | 88.1 nM | –
MLIYSMWGK | – | – | – | – | – | Kd (HLA-A*03:01; [4]): 10.6 nM; Kd (HLA-A*11:01; [4]): 2.63 nM; Kd (HLA-A*31:01; [4]): 459 nM; Kd (HLA-A*33:01; [4]): 2040 nM
FADNDRQDIY | ≥ 70100 nM | ≥ 46000 nM | ≥ 70000 nM | ≥ 70000 nM | 1250 nM | –
RVMANNVKK | 17.2 nM | 16.7 nM | 139 nM | ≥ 77700 nM | 104 nM | –
QMREIITGNK | 15.8 nM | 1710 nM | 1950 nM | ≥ 47500 nM | 12400 nM | –
FWKLVDRER | – | – | – | – | – | Kd (HLA-A*33:01; [5]): 44.6 nM
VSMMSMYGK | 15.2 nM | 1.18 nM | 113 nM | ≥ 23500 nM | 5 nM | –
YVNHTLTGQH | – | – | – | – | – | Kd (HLA-A*03:01; [6]): ≥ 70000 nM; Kd (HLA-A*11:01; [6]): ≥ 69700 nM; Kd (HLA-A*31:01; [6]): ≥ 70000 nM; Kd (HLA-A*33:01; [6]): 29.5 nM; Kd (HLA-A*68:01; [6]): ≥ 70100 nM
ALAPPVNDLK | – | – | – | – | – | Kd (HLA-A*03:01; [7]): 48.1 nM
HAKYMVTDK | 452 nM | 5810 nM | 5060 nM | 14300 nM | 180 nM | –
KSLNRQTVSR | 87.2 nM | 187 nM | 7.78 nM | 1320 nM | 7000 nM | –
ITAKETLYR | – | – | – | – | – | Kd (HLA-A*03:01; [3]): 131 nM; Kd (HLA-A*11:01; [3]): 18.3 nM; Kd (HLA-A*31:01; [3]): 193 nM; Kd (HLA-A*33:01; [3]): 1080 nM; Kd (HLA-A*68:01; [3]): 15.5 nM
ALLGKKKNPR | – | – | – | – | – | Kd (HLA-A*31:01; [7]): 357 nM
IGQMFETTMR | – | – | – | – | – | Kd (HLA-A*33:01; [8]): 1630 nM

Sequence | Kd (HLA-A*03:01; [1]) | Kd (HLA-A*11:01; [1]) | Kd (HLA-A*31:01; [1]) | Kd (HLA-A*33:01; [1]) | Kd (HLA-A*68:01; [1]) | other results
LAELLEMKY | 14400 nM | ≥ 77900 nM | ≥ 77900 nM | ≥ 77700 nM | ≥ 77700 nM | –
SFSNTIQSYK | 117 nM | 130 nM | 220 nM | 12200 nM | 177 nM | –
KIPIYSHTER | 1060 nM | 1140 nM | 25.8 nM | 1190 nM | 1530 nM | –
RSCSYKIGHH | – | – | – | – | – | Kd (HLA-A*03:01; [9]): 3900 nM; Kd (HLA-A*11:01; [9]): 17200 nM; Kd (HLA-A*31:01; [9]): 294 nM; Kd (HLA-A*33:01; [9]): ≥ 70000 nM; Kd (HLA-A*68:01; [9]): ≥ 50900 nM
SVLNDILSR | – | – | – | – | – | Kd (HLA-A*03:01; [3]): 7790 nM; Kd (HLA-A*11:01; [3]): 148 nM; Kd (HLA-A*31:01; [3]): 1140 nM; Kd (HLA-A*33:01; [3]): 5660 nM; Kd (HLA-A*68:01; [3]): 4270 nM
KSFNHVLKRK | – | – | – | – | – | Kd (HLA-A*03:01; [3]): 1.01 nM; Kd (HLA-A*11:01; [3]): 6.18 nM; Kd (HLA-A*31:01; [3]): 67.9 nM; Kd (HLA-A*33:01; [3]): ≥ 70000 nM; Kd (HLA-A*68:01; [3]): 1570 nM
LLAISAVYFK | 3.35 nM | 11.9 nM | 379 nM | 1030 nM | 2.52 nM | –
GVVFLHVTY | – | – | – | – | – | Kd (HLA-A*03:01; [3]): 8170 nM; Kd (HLA-A*11:01; [3]): 3400 nM; Kd (HLA-A*31:01; [3]): 15300 nM; Kd (HLA-A*33:01; [3]): ≥ 77700 nM; Kd (HLA-A*68:01; [3]): ≥ 60600 nM
RQDLLVTFK | – | – | – | – | – | Kd (HLA-A*11:01; [10]): 197 nM
QVIAVEPGK | – | – | – | – | – | Kd (HLA-A*11:01; [10]): 781 nM
ECYVQRFFLR | – | – | – | – | – | Kd (HLA-A*03:01; [11]): 17600 nM; Kd (HLA-A*31:01; [11]): 6 nM; Kd (HLA-A*33:01; [11]): 44.9 nM; Kd (HLA-A*68:01; [11]): 279 nM
ATYLGPQFCK | – | – | – | – | – | Kd (HLA-A*11:01; source organism: Mammarenavirus lassaense): 3.25 nM
MILMKMKKK | – | – | – | – | – | Kd (HLA-A*03:01; [7]): 86.3 nM
FTTNIWLKLR | – | – | – | – | – | Kd (HLA-A*33:01; [8]): 68.3 nM; Kd (HLA-A*68:01; [8]): 28.6 nM
TTSLFLHLV | – | – | – | – | – | Kd (HLA-A*03:01; [11]): 15300 nM; Kd (HLA-A*33:01; [11]): 2260 nM
FLSGRGLGK | – | – | – | – | – | Kd (HLA-A*03:01; source organism: Dengue virus 1 Nauru/West Pac/1974): 91 nM
FTTNIWMKFR | – | – | – | – | – | Kd (HLA-A*31:01; [7]): 1.57 nM; Kd (HLA-A*33:01; [7]): 29.5 nM; Kd (HLA-A*68:01; [7]): 1.73 nM
SILASSLLR | – | – | – | – | – | Kd (HLA-A*03:01; [5]): 722 nM; Kd (HLA-A*11:01; [5]): 125 nM
TYSDPLALR | – | – | – | – | – | Kd (HLA-A*31:01; [10]): ≥ 77900 nM; Kd (HLA-A*33:01; [10]): 9.22 nM
PMFAVGLLFR | – | – | – | – | – | Kd (HLA-A*33:01; [10]): 91.1 nM
NSALTLHWFR | – | – | – | – | – | Kd (HLA-A*31:01; [12]): 3.53 nM; Kd (HLA-A*33:01; [12]): 4.07 nM; Kd (HLA-A*68:01; [12]): 1.75 nM
AIFLTTLSR | – | – | – | – | – | Kd (HLA-A*03:01; [8]): 61.5 nM; Kd (HLA-A*11:01; [8]): 65.7 nM
ATLKNVTEVK | – | – | – | – | – | Kd (HLA-A*11:01; [7]): 279 nM
